B1: SOAT1 (parent)
chain: PSNGRIDIKQLIAKKIKLTAEAEE
B2: TRAF3IP2 (parent)
chain: KQGSMNFRFIPVLFPNAKKEHVPT

Variants of: B1
Assay: protein stability index of a GFP-peptide fusion (GPS, HEK-293T) (PSI 1-6); higher = more stable
Settings: c terminus: a fixed tail appended
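Note: lentivirally expressed fusions sorted by FACS into six bins by GFP to DsRed ratio, PSI derived from sequencing read proportions per bin multiplied by bin number.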

Protein stability index, by site and new letter:
K9: E 4.03 | Y 3.03 | I 2.29 | S 3.28 | D 3.87 | V 2.9 | C 3.25 | H 3.07
Q10: G 3.59 | R 2.7 | P 3.88 | K 3.3 | L 3.18 | F 2.65 | A 3.35
A20: E 3.88 | M 2.71 | H 3.66 | G 3.42 | C 3.44 | P 3.78 | N 3.19 | R 3.07 | F 2.51
I12: F 3.5 | L 3.17 | S 3.82 | D 4.28 | A 3.53
D7: V 2.41 | W 3.46 | K 3.14 | F 2.83 | M 2.89 | A 2.96 | C 3.12 | P 3.23
N3: H 4.32 | S 4.13 | Y 3.42 | D 4.38 | K 3.96 | M 3.66 | L 3.46
E23: H 2.67 | D 3.3 | L 2.12 | C 2.33 | Y 2.22 | F 1.75 | W 2.31
K14: R 3.22 | Y 2.62 | P 4.38 | I 2.71 | H 3.46 | D 3.96 | S 3.84 | M 2.96
I8: L 3.62 | T 4.48 | M 3.44 | F 3.54 | G 3.89 | E 4.62 | K 3.64 | W 3.08
G4: L 3.48 | Y 2.91 | K 3.77 | V 3.04 | T 3.49 | P 4.09
L11: G 3.75 | N 3.6 | A 3.83 | S 3.75 | H 3.97 | Y 3.42 | P 3.66 | K 3.68 | M 3.22
L18: A 3.62 | N 3.73 | D 4.13 | V 3.53 | I 3.72 | P 4.04 | K 3.23 | R 3.45 | E 4.14
I6: N 3.3 | F 2.83 | L 3.18 | M 2.56 | P 3.37 | K 3.74 | V 3.32 | E 4.06
A13: F 2.94 | H 3.41 | D 4.08 | G 3.54 | K 3.48 | T 3.08 | W 2.83 | R 3.57 | S 3.36 | M 3.12
A22: I 2.59 | R 2.79 | L 3.2 | K 3.15 | G 3.66 | Y 2.91 | E 3.93 | N 3.32
R5: M 3.55 | L 4.05 | Y 3.81 | W 3.48 | V 3.82 | I 3.93 | E 4.42
S2: G 3.64 | M 3.11 | A 2.88 | E 3.46
K15: Y 2.69 | A 3.19 | G 4.05 | H 3.17 | S 3.59 | L 1.87 | D 4.25
P1: T 3.64 | A 3.1 | H 3.24 | V 2.98 | I 3.57 | F 3.22
E24: V 2.48 | S 2.73 | P 3.24 | R 2.79 | L 3.11 | G 2.7 | W 2.44 | D 3.39 | I 2.27
T19: P 3.4 | Y 2.52 | E 3.88 | H 3.21 | K 2.52 | W 2.21 | S 2.9 | M 1.89
I16: H 3.78 | Y 3.16 | Q 3.52 | V 3.75 | K 4.01
E21: S 3.02 | I 3.19 | M 2.4 | T 3.15 | Q 3.05 | V 2.59
K17: F 3.15

Variants of: B2
Assay: as above
Settings: c terminus: a fixed tail appended

Protein stability index, by site and new letter:
K1: A 2.02 | C 2.01 | D 2.02 | E 2.7 | F 2.23 | G 2.19 | H 2.17 | I 1.63 | L 1.51 | M 1.94 | N 1.94 | P 1.88 | Q 1.88 | R 2.31 | S 2.16 | T 2.32 | V 1.95 | W 2.08 | Y 2.57
Q2: A 2.47 | C 1.8 | D 1.8 | E 2.13 | F 1.87 | G 2.66 | H 1.63 | I 2.82 | K 1.91 | L 2.23 | M 1.48 | N 1.91 | P 1.93 | R 1.47 | S 1.82 | T 1.84 | V 1.85 | W 2.27 | Y 2.08
G3: A 1.9 | C 2.06 | D 2.02 | E 2.09 | F 3.01 | H 2.01 | I 1.77 | K 1.6 | L 1.67 | M 1.75 | N 2.05 | P 1.74 | Q 1.85 | R 1.83 | S 1.82 | T 2.44 | V 2.06 | W 2.25 | Y 1.33
S4: A 2.68 | C 1.73 | D 2.4 | E 2.57 | F 1.5 | G 1.53 | H 1.68 | K 1.74 | L 1.2 | M 1.81 | N 2.26 | P 2.98 | Q 2.59 | R 1.48 | T 2 | V 1.87 | W 1.41 | Y 2.14
M5: A 2.21 | C 1.98 | D 3.35 | E 2.88 | F 1.52 | G 2.43 | H 2.15 | I 2.01 | K 2.8 | L 1.97 | N 2.44 | P 2.1 | Q 2.65 | R 2.2 | S 2.04 | T 2.5 | V 1.91 | W 1.8 | Y 1.87
N6: A 1.76 | C 1.67 | D 1.89 | E 2.1 | F 1.74 | G 1.56 | H 1.72 | I 2.15 | K 1.6 | L 1.81 | M 1.58 | P 2.44 | Q 1.81 | R 1.66 | S 1.96 | T 1.96 | V 1.93 | W 1.83 | Y 2.14
F7: A 2.95 | C 2.38 | D 2.91 | E 3.67 | G 3.01 | H 2.87 | I 2.12 | K 3.06 | L 1.91 | M 2.32 | N 2.92 | P 3.31 | Q 3.19 | R 2.69 | S 3.12 | T 2.73 | V 2.13 | W 2.23 | Y 2.59
R8: A 1.78 | C 2.52 | D 3.3 | E 3.28 | F 1.61 | G 1.9 | H 2.41 | I 2.88 | K 2.61 | L 2.22 | M 1.88 | N 2.8 | P 2.68 | Q 3.08 | S 2.39 | T 2.04 | V 2.02 | W 2.44 | Y 2.09
F9: A 3.43 | C 2.15 | D 3.99 | E 3.94 | G 3.17 | H 3.38 | I 2.06 | K 3.41 | L 2.44 | M 2.69 | N 3.56 | P 3.22 | Q 3.3

Source: the supplement of paper PMC10567573
